Article PMC9555771 (Science Advances, 2022)

Tests used:
[1] = target: T1, MsbA (WT), purified, His tag cleaved (Escherichia coli K-12); assay: cryo-EM structure
T1 chain: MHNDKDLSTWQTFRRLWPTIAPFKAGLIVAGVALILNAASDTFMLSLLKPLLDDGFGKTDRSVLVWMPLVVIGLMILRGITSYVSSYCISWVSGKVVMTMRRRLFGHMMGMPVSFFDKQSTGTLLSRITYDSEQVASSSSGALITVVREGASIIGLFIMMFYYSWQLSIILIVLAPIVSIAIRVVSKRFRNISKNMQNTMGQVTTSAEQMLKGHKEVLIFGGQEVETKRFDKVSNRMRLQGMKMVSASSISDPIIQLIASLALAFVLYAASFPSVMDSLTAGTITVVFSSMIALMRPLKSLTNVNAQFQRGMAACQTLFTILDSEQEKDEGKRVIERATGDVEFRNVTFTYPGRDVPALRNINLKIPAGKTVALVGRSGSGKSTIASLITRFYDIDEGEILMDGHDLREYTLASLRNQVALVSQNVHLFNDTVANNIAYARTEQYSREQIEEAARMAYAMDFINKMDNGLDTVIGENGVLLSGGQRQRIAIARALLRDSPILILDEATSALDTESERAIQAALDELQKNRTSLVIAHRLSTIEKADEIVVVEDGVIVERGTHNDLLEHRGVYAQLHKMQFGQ

[2] = target: Avi-tagged full-length MsbA, biotinylated, detergent-solubilized (Escherichia coli (K-12 sequence), UniProt P60752, biotin on the Avi-tag (enzymatic, BirA)); assay: grating-coupled interferometry
[3] = target: MsbA (WT), overexpressed in E. coli membranes and cells (Escherichia coli K-12, UniProt P60752); assay: DEER

Measured: binding result

B1: Nb_MsbA#1_A60C labeled with Gd-DOTA (VHH)
VHH: QMQLVESGGGLVQAGGSLRLSCAVSGSIFSIITLAWYRQAPGKPRENVATITRGSRTSYCDSVKGRFTISKDNAKSTVYLQMNKLKPEDTADYYCNAEGPAGYWGQGTPVTVS
binds: all assays above

B2: Nb_MsbA#1_T68C labeled with Gd-DOTA (VHH)
VHH: QMQLVESGGGLVQAGGSLRLSCAVSGSIFSIITLAWYRQAPGKPRENVATITRGSRTSYADSVKGRFCISKDNAKSTVYLQMNKLKPEDTADYYCNAEGPAGYWGQGTPVTVS
binds: all assays above
